Paper PMC8565349 (Nucleic Acids Research, 2021)

Columns and labels:
[1] = biological target: T1, purified S. aureus β-clamp (ITC sample) (S. aureus, UniProt P0A024 1-377); test: ITC
T1 sequence: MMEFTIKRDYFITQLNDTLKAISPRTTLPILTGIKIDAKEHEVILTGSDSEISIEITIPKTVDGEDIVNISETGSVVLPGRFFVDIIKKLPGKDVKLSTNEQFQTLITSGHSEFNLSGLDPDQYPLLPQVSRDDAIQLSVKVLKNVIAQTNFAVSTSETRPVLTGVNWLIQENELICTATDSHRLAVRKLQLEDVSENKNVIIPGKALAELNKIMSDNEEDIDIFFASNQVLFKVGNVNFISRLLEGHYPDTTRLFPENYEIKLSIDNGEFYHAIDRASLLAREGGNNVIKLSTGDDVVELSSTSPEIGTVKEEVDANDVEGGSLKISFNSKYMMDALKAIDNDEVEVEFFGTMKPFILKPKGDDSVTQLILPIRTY

SEC-MALS = biological target: the molecule itself; test: SEC-MALS
cryo-EM structure = biological target: the molecule itself; test: cryo-EM structure
SEC = biological target: the molecule itself; test: SEC

B1: polyhistidine-tagged Gp168 of bacteriophage Twort (natural protein)
chain: MLFFKEKFYNELSYYRGGHKDLESMFELALEYIEKLEEEDEQQVTDYENAMEEELRDAVDVIESQLEIIKDIVR
Kd [1]: 95 ± 16.7 nM
stoichiometry N [1]: 0.16 ± 0.003
stoichiometry N (SEC-MALS): 6
stoichiometry N (cryo-EM structure): 2

B2: polyhistidine-tagged Gp168 Y14A (natural protein, bacteriophage Twort)
chain: MLFFKEKFYNELSAYRGGHKDLESMFELALEYIEKLEEEDEQQVTDYENAMEEELRDAVDVIESQLEIIKDIVR
stoichiometry N (SEC): 6
